The experiment deals with T1, mutant S100A4 (C3S, C76S, C81S, C86S) (human, UniProt P26447 1-101, C3S | C76S | C81S | C86S).
T1 construct: human S100A4 with all four cysteines mutated to serines; residue numbers 1-101 in the HSQC bar graph; 15N-labelled where it was the observed protein in HSQC; No tag is named; also called mS100A4; quadruple mutant S100A4; source: E. coli BL21 (DE3), pET21b, purified (ammonium sulfate, Hi-Prep Q XL, Hi-Prep Phenyl FF, Superdex 75)
As to the kind of experiment: other fluorescence titration; intrinsic tryptophan fluorescence of EGF (8 uM), excitation 295 nm, emission at 345 nm; mS100A4 added at 0-22 uM; double-reciprocal plot, one-site binding model. The note with it: both partners purified.

T1 sequence (P26447 whole entry C3S/C76S/C81S/C86S, one chain of several): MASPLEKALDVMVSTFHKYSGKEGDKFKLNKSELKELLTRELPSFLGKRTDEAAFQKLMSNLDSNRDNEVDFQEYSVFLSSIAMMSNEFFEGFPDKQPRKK

B1: human epidermal growth factor (ligand, UniProt P01133 971-1023, looked up)
chain: NSDSECPLSHDGYCLHDGVCMYIEALDKYACNCVVGYIGERCQYRDLKWWELR
notes: human epidermal growth factor, the mature hormone cut from pro-EGF; three disulfide bonds; 15N-labelled where it was the observed protein in HSQC; also called EGF; recombinant EGF
As to B1, the affinity, expressed as Kd, was 5.2 µM.

The term Kd denotes the equilibrium constant for the complex coming apart.

For the origin of these results see publication PMC4999211, “Amlexanox Blocks the Interaction between S100A4 and Epidermal Growth Factor and Inhibits Cell Proliferation” (PLoS ONE, 2016).
